From patent publication US20120027756A1 (IRM, published 2012) come the findings set out here.

In test [1] the target is T1, Human TSLPR fragment 67-336 (human, UniProt Q9HC73).
T1 construct: extracellular domain fragment; also called 67 (23) to 336 (112)
T1 sequence (receptor fragment, looked up): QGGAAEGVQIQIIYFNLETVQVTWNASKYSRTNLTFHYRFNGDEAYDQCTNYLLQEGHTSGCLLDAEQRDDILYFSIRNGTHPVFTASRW
The experiment in a line: ELISA of antibody 1D6.C9 on human TSLPR fragments (OD650); hFc bars as control for the fragment. For orientation: An ELISA detects its analyte on a solid surface through an enzyme-linked reagent.

Test [2] addresses T2, Human TSLPR fragment 67-174 (human, UniProt Q9HC73).
T2 construct: extracellular domain fragment; also called 67 (23) to 174 (58)
T2 receptor fragment (looked up): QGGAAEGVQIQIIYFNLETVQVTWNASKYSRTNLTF
Described as above.

Test [3] concerns the target T3, Human TSLPR (human, UniProt Q9HC73 23-231, limits assumed).
T3 construct: also called hTSLPR; human thymic stromal lymphopoietin receptor
T3 sequence (looked up): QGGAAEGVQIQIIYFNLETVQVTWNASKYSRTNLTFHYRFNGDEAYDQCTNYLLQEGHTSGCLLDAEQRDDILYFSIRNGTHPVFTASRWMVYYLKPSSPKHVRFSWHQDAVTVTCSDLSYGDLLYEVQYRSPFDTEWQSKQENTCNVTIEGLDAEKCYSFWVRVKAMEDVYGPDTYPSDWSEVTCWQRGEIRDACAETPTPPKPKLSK
Kind of test: Biacore surface plasmon resonance. For orientation: In SPR one partner is held on a chip, and binding of the other changes the refractive index at the surface.

The target of test [4] is T4, Human TSLPR on the cell surface (Ba/F3/hTSLPR/hIL7Rα cells, Ba/F3/hTSLPR/hIL7Rα/Stat5-Luc cells, human … (human, UniProt Q9HC73 23-371)).
T4 sequence (looked up): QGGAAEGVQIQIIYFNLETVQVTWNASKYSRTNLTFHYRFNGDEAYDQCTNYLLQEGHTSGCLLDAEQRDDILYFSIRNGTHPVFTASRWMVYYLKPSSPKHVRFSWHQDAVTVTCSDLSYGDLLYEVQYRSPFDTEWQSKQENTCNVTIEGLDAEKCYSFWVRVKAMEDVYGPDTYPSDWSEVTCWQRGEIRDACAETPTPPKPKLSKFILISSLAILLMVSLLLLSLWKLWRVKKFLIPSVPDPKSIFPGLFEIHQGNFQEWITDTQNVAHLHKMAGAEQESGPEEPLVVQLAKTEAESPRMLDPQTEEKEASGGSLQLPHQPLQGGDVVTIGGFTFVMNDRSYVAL
The experiment in a line: cell-based or functional assay.

Test [5] concerns the target T3, Human TSLPR. The experiment in a line: ForteBio, solution binding kinetics. (Biolayer interferometry detects binding as a change in optical thickness at a sensor tip.)

B1: mouse anti-hTSLPR monoclonal antibody clone 1D6.C9 (antibody, V domains shown)
VH: QIQLGQSGPELKKPGETVKISCKASGYTFTTYGMSWVKQAPGKGLQWMGWINTYSGVPRYADDFKGRFAFSLETSASTAYLQIYNLKNEDTATYFCTREGFITTVVGAAGRFVYWGQGTLVTVSA
VL: DIVMTQSHKFMSTSVGDRVSITCKASQDVGTAVAWYQQKPGQSPKLLIYWASTRHTGVPDRFTGSGSGTDFTLTLNNVQSEDLADYFCQQYSTYPTFGSGTKLELKR
notes: also called mAb 1D6.C9; mouse anti-hTSLPR antibody
Turning to B1, the binding result in test [1] and in test [2] was “no binding” each time.

B2: NV115-3B (Fab) (Fab, V domains shown)
VH: QVQLVQSGAEVKKPGASVKVSCKASGYTFTTYGISWLRQAPGQGLEWMGWVNTNTGNPRYAQGFTGRFVFSLDTSVSTAYLQISSLKAEDTAVYYCAREGFITTVVGAAGRFVYWGQGTLVTVSS
VL: DIQMTQSPSSLSASVGDRVTITCRASQDIHTRLAWYQQKPGQPPKLLIYWASTRASGVPDRFSGTGSGTDFTLTISSLQAEDVAVYYCQQYSTYPTFGQGTKLEIK
notes: the constant domains of the Fab are not
In general, Kd refers to the concentration at which binding is half-saturated. B2: binding in the test with Human TSLPR [3] was characterised by a dissociation constant (Kd) of 0.101 nM. Besides, in test [4], the “IC50 [pM] Human TSLPR Prolif.” value worked out at 210 pM, the “IC50 [pM] Human TSLPR Prolif. (15% serum)” value was determined as 200 pM, the “IC50 [pM] Human TSLPR RGA” value was 270 pM and the “IC50 [pM] Human TSLPR RGA (15% serum)” value is 950 pM. The same molecule had a Kd with Human TSLPR [5] of 0.051 nM.
